Measured values reported in publication PMC4914967, “An evolutionarily conserved SSNA1/DIP13 homologue is a component of both basal and apical complexes of Toxoplasma gondii” (Scientific Reports, 2016).

Target: the molecule itself
Assay: SDS-PAGE with Coomassie staining and anti-His immunoblot; purified His-tagged recombinant TgDIP13 resolved on a gel; bands at ~18 kDa (monomer) and ~36 kDa (dimer)

B1: His-tagged recombinant TgDIP13 (Toxoplasma gondii SSNA1/DIP13 homologue) (natural protein, UniProt A0A125YRV3 1-150, looked up)
chain: MTSTTNSNLHNYNHELVACIDDLRRKREEVHRQIIKEEEDRAKVQKEIALLQERLQKLNDSITRKIQARNEYDKTILETEAAYTKILESAQTLLHVLKRESVHLGRKTSGDRAELPGIGITGVGVDYSPNSVSELSHRRAEKGKPTAGAG
notes: TgDIP13, the SSNA1/DIP13 homologue of Toxoplasma gondii (ToxoDB entry TGME49_295450); the TgDIP13 gene was amplified from T. gondii cDNA with primers ML2448/ML2449 and cloned NdeI/XhoI into pET24a+; Apparent mass of the monomer ~18 kDa; also called T. gondii SSNA1/DIP13 homologue; not shown: His6, C-terminal, kept
stoichiometry N: 2
